± gives the uncertainty stated by the source.
Test: protein stability index of a GFP-peptide fusion (yeast GPS) (PSI 1-4); higher = more stable; sorted into four equal gates, so the index is relative within each strain
Summary of the method: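 Sequencing reads from sorted gates were used to score each peptide. The library consisted of tiled 17-residue yeast protein peptides fused downstream of GFP on a Cherry-expressing plasmid, pooled and carried in yeast. Mid-log cultures in leucine-free medium were split into four equal gates by GFP/Cherry ratio, and each gate's plasmids were PCR-amplified and Illumina-sequenced. The protein stability index adds up, over all gates, the read frequency multiplied by the gate number.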

| Sequence | protein stability index (doa10∆) | protein stability index (pdr5∆) | protein stability index (ubr1∆) | protein stability index (san1∆) |
| --- | --- | --- | --- | --- |
| DNWRREFLKWTPNVNVL [ISW2] | 1.46 ± 0.098 | 2.42 ± 0.12 | 2.31 ± 0.07 | – |
| LTKKEKKEANLFPEQQN [RPL6A] | 3.08 ± 0.072 | 3.2 ± 0.072 | 3.16 ± 0.048 | 3.25 ± 0.06 |
| VEEIKLQKEKELHKEGT [SMC2] | – | 3.03 ± 0.12 | 2.97 ± 0.096 | 2.81 ± 0.095 |
| LDLIPHSSSVFKGTDFV [SRB4] | 2.42 ± 0.062 | 2.74 ± 0.057 | 2.4 ± 0.041 | 2.89 ± 0.068 |
| LAKKTHKQELQDLILDL [SMC4] | 3.07 ± 0.083 | 3.25 ± 0.088 | 3.05 ± 0.067 | 3.14 ± 0.055 |
| DEVYVQNSKFLKVNVTL [YJL039C/NUP192] | 2.68 ± 0.064 | 2.78 ± 0.054 | 2.45 ± 0.039 | 2.76 ± 0.06 |
| CNSLHIPQDFENEVSDI [ESC2] | 2.95 ± 0.06 | 3.03 ± 0.056 | 2.92 ± 0.045 | 2.93 ± 0.088 |
| SFNCENFFQAPQDYVLE [YML031W/NDC1] | 3.07 ± 0.079 | 3.06 ± 0.082 | 3.11 ± 0.067 | 3.09 ± 0.07 |
| DQDELVQPPLDKFPYKK [SWP82] | 3.11 ± 0.088 | 3.26 ± 0.093 | 3.08 ± 0.066 | 3.13 ± 0.059 |
| TERHIQVGDGLEILIVT [PRE7] | 2.05 ± 0.067 | 1.97 ± 0.07 | 3.12 ± 0.065 | 2.63 ± 0.11 |
| YLIDHIKVEGAVGNLGN [RPL22A] | 2.9 ± 0.17 | 3.11 ± 0.16 | 3.21 ± 0.11 | 2.89 ± 0.092 |
| MLLCVSYFLQERYFDCC [PCI8] | 1.19 ± 0.091 | 1.26 ± 0.058 | 1.3 ± 0.092 | 1.55 ± 0.1 |
| DQNNATMGEETAKKDMS [SNF12] | 3.44 ± 0.082 | 3.34 ± 0.11 | 3.32 ± 0.09 | 3.21 ± 0.12 |
| MTSIGTGYDLSNSVFSP [PRE10] | 2.77 ± 0.085 | 2.91 ± 0.11 | 2.8 ± 0.12 | 2.23 ± 0.27 |
| PGTGKTLLARAVAHHTD [RPT6] | 1.78 ± 0.05 | 2.76 ± 0.06 | 1.49 ± 0.057 | 1.53 ± 0.11 |
| LQRHSGISSTLVSANND [YLR018C/POM34] | 2.7 ± 0.052 | 2.87 ± 0.064 | 2.94 ± 0.07 | 2.96 ± 0.062 |
| GPKSGSTMGTPTVHNST [PGD1] | 3.05 ± 0.078 | 3.04 ± 0.055 | 3.12 ± 0.06 | 3.01 ± 0.061 |
| LTITKAAGANVDNVWAD [RPP1B] | 2.63 ± 0.089 | 2.26 ± 0.063 | 2.85 ± 0.059 | 2.78 ± 0.15 |
| EEALNFDISMADLSSSE [SSN2] | 2.85 ± 0.06 | 2.95 ± 0.053 | 2.6 ± 0.049 | 3.05 ± 0.07 |
| KYHKEQFIKSNFEKILL [SRB8] | 2.21 ± 0.085 | 2.32 ± 0.047 | 2.37 ± 0.057 | 1.95 ± 0.075 |
| YLNLLQEDELDEGTALS [RPB10] | 3.38 ± 0.11 | 3.3 ± 0.13 | 3.18 ± 0.16 | 3.4 ± 0.11 |
| DKKLNLNLPLQFSLPNG [SNF12] | 3.04 ± 0.085 | 3.02 ± 0.079 | 2.7 ± 0.075 | 2.62 ± 0.074 |
| IILHFANFGEILEDFRV [YMR153W/NUP53] | 2.7 ± 0.1 | 2.65 ± 0.084 | 2.85 ± 0.16 | 2.85 ± 0.062 |
| SLPEFFTNRIPSKTPEV [SWI3] | 2.56 ± 0.066 | 2.53 ± 0.054 | 2.66 ± 0.059 | 2.65 ± 0.062 |
| KIVVLSRTGPVFDLCWN [RRP43] | 2.07 ± 0.057 | 2.2 ± 0.048 | 2.39 ± 0.035 | 2.91 ± 0.066 |
| VNLENPIPIAVLDSYTP [FAS1] | 1.42 ± 0.046 | 1.7 ± 0.036 | 1.42 ± 0.027 | 1.69 ± 0.071 |

| Sequence | protein stability index (doa10∆) | protein stability index (pdr5∆) | protein stability index (ubr1∆) | protein stability index (san1∆) |
| --- | --- | --- | --- | --- |
| NKSLKYVIHGIELLSDL [LIN1] | 2.81 ± 0.093 | 2.94 ± 0.096 | 2.87 ± 0.067 | 2.92 ± 0.075 |
| NGLKDQLNEERSRYRRE [YIL149C/MLP2] | 2.77 ± 0.19 | 2.5 ± 0.22 | 2.86 ± 0.17 | – |
| KLVTNVVDPKTSIEKSS [YML103C/NUP188] | 2.31 ± 0.056 | 2.71 ± 0.049 | 2.62 ± 0.051 | 2.52 ± 0.069 |
| MPNSSLQPFYSQPTAAG [DSN1] | 2.33 ± 0.076 | 2.71 ± 0.067 | 2.78 ± 0.064 | 2.44 ± 0.056 |
| TSSAFFYQQVHKKDRLQ [SIR4] | 2.43 ± 0.048 | 2 ± 0.046 | 2.44 ± 0.032 | 2.26 ± 0.053 |
| YWYWWKNGNEYNEFLYS [QCR8] | 2.62 ± 0.066 | 2.21 ± 0.049 | 2.56 ± 0.047 | 2.49 ± 0.06 |
| KELQLEKESVEKQHENA [SMC3] | 3.02 ± 0.14 | 3.32 ± 0.099 | 3.15 ± 0.054 | 2.85 ± 0.071 |
| KELNTERQIFLEACIVR [CDC53] | 2.09 ± 0.048 | 2.23 ± 0.072 | 2.57 ± 0.047 | 2.5 ± 0.056 |
| ENVLAIGIAGAHRVRDL [SKI6] | 1.97 ± 0.065 | 2.21 ± 0.059 | 1.74 ± 0.052 | 2.1 ± 0.084 |
| FVIPILIKMSRSPPRPP [PRP28] | 2.04 ± 0.069 | 1.93 ± 0.065 | 2.14 ± 0.073 | 2.01 ± 0.088 |
| FNYSGKDMLYSGITGEC [RET1] | 2.48 ± 0.075 | 2.46 ± 0.075 | 2.61 ± 0.06 | 2.19 ± 0.12 |
| IDMESDVEDDDKETQLK [POP7] | 1.67 ± 0.054 | 1.92 ± 0.048 | 1.98 ± 0.031 | 1.62 ± 0.088 |
| LHVPNLQPPKTSSRGRD [SMC4] | 2.44 ± 0.044 | 2.52 ± 0.043 | 2.18 ± 0.039 | 2.29 ± 0.054 |
| EYIDDHRSGKIVVQLNG [RPS22A] | 3.21 ± 0.23 | 3.28 ± 0.17 | 2.47 ± 0.23 | 2.77 ± 0.13 |
| GANPRVLSTFTAEFGKI [RPN10] | 2.14 ± 0.11 | 2.08 ± 0.1 | 2.18 ± 0.073 | 2.12 ± 0.2 |
| TNVIAFAFWNLLVKFIK [YLR018C/POM34] | 1.42 ± 0.092 | 1.39 ± 0.084 | 1.48 ± 0.042 | 1.29 ± 0.16 |
| QKSTELLIRKLPFQRLV [HHT1] | 1.26 ± 0.14 | 1.12 ± 0.17 | 1.3 ± 0.16 | 1.17 ± 0.21 |
| EDVTPVPSDSTRKKGGR [RPS14A] | 3.1 ± 0.13 | 3.24 ± 0.079 | 3.45 ± 0.075 | 3.41 ± 0.065 |
| NFGFGIDEHIDLGIKYD [RPL11A] | 2.59 ± 0.1 | 2.51 ± 0.16 | 2.39 ± 0.11 | 2.39 ± 0.11 |
| LLMSCPRLSHLSLTAVP [GRR1] | 1.9 ± 0.051 | 1.57 ± 0.054 | 2.19 ± 0.059 | 1.63 ± 0.12 |
| DDPVPTPPAIEHKPVSP [SSN2] | 2.63 ± 0.14 | 2.59 ± 0.26 | 2.49 ± 0.16 | 2.72 ± 0.29 |
| TPSLPIAPPVAPHDSEA [SNF5] | 2.6 ± 0.07 | 2.48 ± 0.074 | 2.52 ± 0.066 | 3.23 ± 0.064 |
| PENLQVTSEKYPFDKLE [BRR2] | 2.86 ± 0.085 | 3.07 ± 0.093 | 3.19 ± 0.035 | 2.93 ± 0.064 |
| GIRYIRLKQVFNRALDQ [NNF1] | 1.79 ± 0.035 | 1.95 ± 0.027 | 2.12 ± 0.025 | 2.04 ± 0.036 |
| LNKLYGGAKSRGVRPYK [RPS19A] | 3.34 ± 0.14 | 3.3 ± 0.18 | – | 3.09 ± 0.061 |
| GCIPGNRKRIVTLRKSL [RPL3] | 1.38 ± 0.069 | 1.5 ± 0.083 | 1.26 ± 0.061 | 1.6 ± 0.2 |

— the supplement of paper PMC9732359
